Measurements from patent publication US20180289790A1 (Bristol-Myers Squibb, published 2018).
Where a chain is given by its changes, count along the chain named. Numbers in names are those of the source.

Columns and labels:
[1] = molecular target: human ICOS (huICOS), on activated human CD4+ T cells (human) (UniProt Q9Y6W8); assay: cell-based or functional assay
hCD64 (human) = hCD64 (human) (UniProt P12314); assay: method not stated (Table 9, 'µM Kd')
hCD32b (human) = hCD32b (human) (UniProt P31994); assay: method not stated (Table 9, 'µM Kd')
hCD32b (human), sequence (P31994 43-217 limits assumed): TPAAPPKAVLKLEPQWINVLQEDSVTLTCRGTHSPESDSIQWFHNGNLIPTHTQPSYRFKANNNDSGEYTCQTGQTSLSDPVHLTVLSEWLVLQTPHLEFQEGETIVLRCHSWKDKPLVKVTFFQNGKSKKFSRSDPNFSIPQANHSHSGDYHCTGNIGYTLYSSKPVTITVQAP

hCD32a-H131 (human) = hCD32a-H131 (human) (UniProt P12318); assay: method not stated (Table 9, 'µM Kd')
hCD32a-H131 (human), sequence (P12318 36-218 limits assumed): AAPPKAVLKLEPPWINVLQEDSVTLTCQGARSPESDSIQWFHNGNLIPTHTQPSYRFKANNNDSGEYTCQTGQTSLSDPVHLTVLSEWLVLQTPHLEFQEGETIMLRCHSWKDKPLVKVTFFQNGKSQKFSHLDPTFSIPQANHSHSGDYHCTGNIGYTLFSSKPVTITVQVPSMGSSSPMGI

hCD32a-R131 (human) = hCD32a-R131 (human) (UniProt P12318); assay: method not stated (Table 9, 'µM Kd')
hCD32a-R131 (human), sequence (P12318 36-218 H167R limits assumed): as the sequence (P12318 36-218 limits assumed) above, with H132R counted along it

hCD16a-F158 (human) = hCD16a-F158 (human) (UniProt P08637); assay: method not stated (Table 9, 'µM Kd')
hCD16a-F158 (human), sequence (P08637 17-208 limits assumed): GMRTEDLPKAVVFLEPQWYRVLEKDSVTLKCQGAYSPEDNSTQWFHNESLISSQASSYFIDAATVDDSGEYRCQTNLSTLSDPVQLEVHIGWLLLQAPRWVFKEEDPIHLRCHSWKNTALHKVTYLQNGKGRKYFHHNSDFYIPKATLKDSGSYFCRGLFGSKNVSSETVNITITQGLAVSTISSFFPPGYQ

hCD16a-V158 (human) = hCD16a-V158 (human) (UniProt P08637); assay: method not stated (Table 9, 'µM Kd')
hCD16a-V158 (human), sequence (P08637 17-208 F176V limits assumed): as the sequence (P08637 17-208 limits assumed) above, with F160V counted along it

huICOS/Fc [2] = molecular target: T1, huICOS/Fc (human, UniProt Q9Y6W8 21-140); assay: SPR binning: reference antibody on chip, test antibody pre-incubated with huICOS/Fc
T1 construct: also called huICOS polypeptide construct; human ICOS antigen; not shown: Fc part
T1 sequence: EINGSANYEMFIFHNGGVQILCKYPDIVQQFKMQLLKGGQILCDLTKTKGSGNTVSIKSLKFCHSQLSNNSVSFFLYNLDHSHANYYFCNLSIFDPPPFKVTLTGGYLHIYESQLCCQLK

huICOS/Fc [3] = molecular target: T1, huICOS/Fc; assay: HDX-MS, ICOS-Fc mixed with mAb at 1:1 ratio
Experimental: ICOS-Fc was mixed with mAbs at 1:1 ratio and HDX-MS was run for one minute, 10 minutes, 4 hours in duplicate.

[4] = molecular target: T2, human ICOS Fc (R&D Systems, 169-CS-050) (human, UniProt Q9Y6W8 21-140); assay: SPR (Biacore T200), 37 °C, human ICOS Fc captured by anti-hFc on a CM4 chip, Fab as analyte, 1:1 Langmuir model
T2 construct: Bought construct; also called human ICOS with an Fc tag; not shown: Fc tag
T2 sequence: T1 sequence

hCD64 (human), sequence (P12314 16-288 limits assumed): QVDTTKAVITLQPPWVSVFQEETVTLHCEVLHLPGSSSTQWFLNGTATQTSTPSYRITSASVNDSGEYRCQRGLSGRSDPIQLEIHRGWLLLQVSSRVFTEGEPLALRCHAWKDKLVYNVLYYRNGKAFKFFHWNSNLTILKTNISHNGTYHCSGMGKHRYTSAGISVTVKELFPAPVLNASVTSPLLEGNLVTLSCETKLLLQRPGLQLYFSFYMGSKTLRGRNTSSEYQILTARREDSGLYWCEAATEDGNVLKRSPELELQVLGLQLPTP

Molecule: ICOS.4 (chimeric antibody with the variable regions of hamster antibody C398.4A and human IgG1f constant regions)
- EC50 of interferon-gamma secretion, CHO-OKT3-CD32 / CD4+CD25- T cell co-culture [1]: 0.018 µg/mL

Molecule: human IgG1f-S267E, as in Table 9 (antibody)
- Kd (hCD64 (human)): 0.2 µM
- Kd (hCD32b (human)): 87 µM
- Kd (hCD32a-H131 (human)): 650 µM
- Kd (hCD32a-R131 (human)): 31 µM

Molecule: human IgG1f (wild type), as in Table 9 (antibody)
- Kd (hCD64 (human)): 0.2 µM
- Kd (hCD32b (human)): 3400 µM
- Kd (hCD32a-H131 (human)): 530 µM
- Kd (hCD16a-F158 (human)): 200 µM
- Kd (hCD32a-R131 (human)): 960 µM
- Kd (hCD16a-V158 (human)): 97 µM

B1: 17C4 (antibody, V domains shown)
VH: QVTLRESGPALVKPTQTLTLTCTFSGFSLSTSGMCVSWIRQPPGKALEWLALIDWDDDKFYSTSLKTRLTISKDTSKNQVVLTMTNMDPVDTATYYCARMSTPTYYGLDVWGQGTTVTVSS
VL: DIQMTQSPSSLSASVGDRVTITCRASQGISSWLAWYQQKPEKAPKSLIYAASSLQSGVPSRFSGSGSGTDFTLTISSLQPEDFATYYCQQYNSYPLTFGGGTKVEIK
notes: Fully human hybridoma antibody
- binding result (huICOS/Fc [2]): binds

B2: 3E8 (antibody, V domains shown)
VH: QVQLVESGGGVVQPGMSLRLSCAASGFTFSTYGMQWVRQAPGKGLEWVTVIWHDGSHKDYADSVKGRFTISRDNSKNTMYLQMNSLRAEDTAVYYCARDRQTGEGYFDFWGQGTLVTVSS
VL: B1 VL with L96Y, G100Q, V104L
notes: as for B1
- binding result (huICOS/Fc [2]): binds

B3: IgG-2644 (antibody, V domains shown)
VH: EVQLLESGGGLVQPGGSLRLSCEASGFIFKYYAMSWVRQAPGKGLEWVSGISGSGGSTYYADSVKGRFTISRDNSKHTLYLQMNSLRAEDTAVYYCAKDGDFDWIHYYYGMDVWGQGTTVTVSS
VL: AIQLTQSPSSLSASVGDRVTITCRASQGISSALAWYQQKPGKAPKLLIYDASSLESGVPSRFSGSGSGTDFTLTISSLQPEDFATYYCQQFNSYPHTFGGGTKVEIKR
notes: Human antibody from mRNA display, cloned into IgG expression vectors
- binding result (huICOS/Fc [2]): binds

B4: 9D5 (antibody, V domains shown)
VH: QITLKESGPTLVKPTQTLTLTCTFSGFSLGTSGLGVGWIRQPPGKALEWLAFIYWDDDKRYSPSLKSRLTITKDTSKNQVVLTMTNMDPVDTATYYCAHRRGFFDYWGQGTLVTVSS
VL: B1 VL
notes: as for B1
- binding result (huICOS/Fc [3]): binds

B5: ICOS.33 IgG1f S267E Fab fragment (Lot PC-1804-04) (Fab, V domains shown)
VH: EVQLVESGGGLVKPGGSLRLSCAASGFTFSDYFMHWVRQAPGKGLEWVGVIDTKSFNYATYYSDLVKGRFTISRDDSKNTLYLQMNSLKTEDTAVYYCTATIAVPYYFDYWGQGTLVTVSS
VL: DIQMTQSPSSLSASVGDRVTITCQASQDISNYLSWYQQKPGKAPKLLIYYTNLLAEGVPSRFSGSGSGTDFTFTISSLQPEDIATYYCQQYYNYRTFGPGTKVDIKR
notes: Fab of m1; also called Fab fragment of ICOS.33 IgG1f S267E
- Kd [4]: 0.052 to 0.065 µM
